# Reference: patent US9023604 (IBA, dated 2015)
# Numbering of substitutions follows the chain as printed. Names may count otherwise.
# B1: 13B8.2 Fab fragment (variable domains of murine anti-CD4 antibody 13B8.2, human CH1 gamma1 and human kappa constant domains), heavy chain fused to One-STrEP-tag (Fab, V domains shown)
# VH: QVQLKQSGPGLVQPSQSLSITCTVSGFSLTTFGVHWVRQSPGKGLEWLGVIWRSGITDYNVPFMSRLSITKDNSKSQVFFKLNSLQPDDTAIYYCAKNDPGTGFAYWGQGTLVTVSA
# VL: DIQMTQSPASLSASVGETVTFTCRASEMIYSYLAWYQQKQGKSPQLLVHDAKTLAEGVPSRFSGGGSGTQFSLKINTLQPEDFGTYYCQHHYGNPPTFGGGTKLEIKR
# notes: Expressed in the E. coli periplasm; Stained as a monomer or multimerized on Strep-Tactin PE; also called CD4 wt (13B8.2); 13B8.2 wildtype (wt) Fab fragment
# B2: Mutant 13B8.2 Fab fragment with His at position 35 of the heavy chain mutated to Ala, heavy chain fused to One-STrEP-tag (Fab, V domains shown)
# VH: B1 VH with H35A
# VL: B1 VL
# notes: also called CD4 mutant 3 (H35A); mutant 3
# B3: Mutant 13B8.2 Fab fragment with Tyr at position 92 of the light chain mutated to Ala, heavy chain fused to One-STrEP-tag (Fab, V domains shown)
# VH: B1 VH
# VL: B1 VL with Y92A
# notes: also called CD4 mutant 2 (Y92A); mutant 2
# B4: Mutant 13B8.2 Fab fragment with His at position 91 of the light chain mutated to Ala, heavy chain fused to One-STrEP-tag (Fab, V domains shown)
# VH: B1 VH
# VL: B1 VL with H91A
# notes: also called CD4 mutant 4 (H91A); mutant 4
# B5: Mutant 13B8.2 Fab fragment with Phe at position 100 of the heavy chain mutated to Ala, heavy chain fused to One-STrEP-tag (Fab, V domains shown)
# VH: B1 VH with F104A
# VL: B1 VL
# notes: also called CD4 mutant 1 (F100A); F100K-H
# Biological target: T1, CD4 cell surface receptor molecule on peripheral blood mononuclear cells (PBMCs) (human, UniProt P01730 26-458)
# T1 construct: whole, on cells; also called CD4 receptor molecule
# Experiment: flow cytometry, PBMCs, live CD3+ T cells; column 'Fab multimer -> D-biotin -> Fab multimer': second Fab-multimer staining after D-biotin and washing
# From the text: (§1) Peripheral Blood Mononuclear Cells (PBMCs) were stained with anti-CD4 Fab fragments (receptor binding reagent) fused to a sequential arrangement of two Strep-tag® sequences (commercially available under the trade name "One-STrEP-tag"; binding partner C) and multimerized on phycoerythrin labeled Strep-Tactin® (Strep-Tactin PE; IBA GmbH, Göttingen, Germany; multimerization reagent comprising at least 2 binding sites Z for the binding partner C) and analyzed either before (second column) or after treatment with D-biotin (third column). Remaining Fab-monomers (i.e. Fab fragments used as receptor binding reagent) on the target cell surface were then detected after subsequent washing steps to remove […] using Strep-Tactin PE alone (without bound Fab fragments) (fourth column). Fab-multimer staining after the reversible staining described above of the cells was performed again (fifth column) to control completion of biotin removal which otherwise would have hampered the staining of remaining Fab-monomers with Strep-Tactin PE alone (without bound Fab fragments) as shown in the fourth column and which thus would have led to a wrong conclusion of the experiment. Alternatively, cells were incubated with monomeric Fab-fragments, washed and subsequently analyzed after staining with Strep-Tactin® PE (first, i.e. left-most column). Live CD3^+ T cells are shown. Numbers in the dot plots indicate the percentage of cells within gates.
# (§2) For staining and dissociation experiments, 5 ×10^6 PBMCs were incubated with the respective anti-CD4 Fab-multimer-Strep-Tactin® PE complexes or with the corresponding Fab-monomers (the latter not complexed with Strep-Tactin® PE).
row,Binder,percentage of cells within gate
1,B1,18.8%
2,B2,19.3%
3,B3,18.8%
4,B4,20%
5,B5,19.2%

# Biological target: T1, CD4 cell surface receptor molecule on …
# Experiment: flow cytometry, PBMCs, live CD3+ T cells; column 'Fab monomer -> ST-PE': cells incubated with monomeric Fab, washed, then stained with Strep-Tactin PE; y axis CD4 Fab-multimer / Fab-monomer, x axis CD8
# From the text: as §1
# (§3) For staining and dissociation experiments, 5 ×10^6 PBMCs were incubated with the respective anti-CD4 Fab-multimer-Strep-Tactin® PE complexes or with the corresponding Fab-monomers (the latter not complexed with Strep-Tactin® PE). […] After D-biotin-mediated disruption of the multimeric complexes (FIG. 2, third column) and subsequent washing, the cells were probed for residual surface-bound Fab fragments by the addition of Strep-Tactin® PE alone (without bound Fab) (FIG. 2, fourth column).
row,Binder,percentage of cells within gate
1,B1,20%
2,B2,0.007%
3,B3,0.0022%
4,B4,0.0039%
5,B5,19.9%

# Biological target: T1, CD4 cell surface receptor molecule on …
# Experiment: flow cytometry, PBMCs, live CD3+ T cells; column 'Fab multimer -> D-biotin': Fab-multimer staining analysed after treatment with D-biotin
# Experimental: (§4) Remaining Fab-monomers (i.e. Fab fragments used as receptor binding reagent) on the target cell surface were then detected after subsequent washing steps to remove […] using Strep-Tactin PE alone (without bound Fab fragments) (fourth column). Fab-multimer staining after the reversible staining described above of the cells was performed again (fifth column) to control completion of biotin removal which otherwise would have hampered the staining of remaining Fab-monomers with Strep-Tactin PE alone (without bound Fab fragments) as shown in the fourth column and which thus would have led to a wrong conclusion of the experiment. Alternatively, cells were incubated with monomeric Fab-fragments, washed and subsequently analyzed after staining with Strep-Tactin® PE (first, i.e. left-most column). Live CD3^+ T cells are shown. Numbers in the dot plots indicate the percentage of cells within gates.
# (§5) For staining of a CD4 receptor molecule specific target cell population in a mixture of cells, Strep-Tactin® labeled with phycoerythrine as a fluorescent label (IBA GmbH, Göttingen, Germany) was used as multimerization reagent together with the monomeric CD4 binding Fab-One-STrEP fragment of the variants of the antibody 13B8.2 (that served as receptor binding reagent) as described below. For FACS analysis 5×10^6 PBMCs were incubated with Fab multimers consisting of 0.2 μg Fab-fragment (comprising binding site B) equipped with the One-STrEP-tag (binding partner C) as receptor binding reagent and 0.75 μg Strep-Tactin® PE (IBA GmbH, Göttingen, Germany) as multimerization reagent using the protocol below. In addition, after FACS separation, the multivalent complexes were disrupted in a portion of each of the stained cells by addition of biotin as described below. Control antibody stainings were performed by concomitant application of the respective antibody: anti-CD4 (OKT4) (from eBiosciences, San Diego, Calif., USA). After the staining procedure of the present invention, cells were subsequently stained with propidium iodide for live/dead discrimination.
# as §2
row,Binder,percentage of cells within gate
1,B1,0.041%
2,B2,0.041%
3,B3,0.034%
4,B4,0.017%
5,B5,0.014%

# Biological target: T1, CD4 cell surface receptor molecule on …
# Experiment: flow cytometry, PBMCs, live CD3+ T cells; column 'Fab multimer': Fab multimerized on Strep-Tactin PE
# Experimental: as §4, §5
# Protocol for Staining of 5×10^6 Cells with Receptor Binding Reagent and Multimerization Reagent 1. 0.75 μg Strep-Tactin PE were incubated with 0.2 μg monomeric CD4 binding Fab-One-STrEP fragment for 30 minutes at 4° C. in the dark. 2.
row,Binder,percentage of cells within gate
1,B1,23.3%
2,B2,23.4%
3,B3,14.7%
4,B4,23.1%
5,B5,23%

# Biological target: T1, CD4 cell surface receptor molecule on …
# Experiment: flow cytometry, PBMCs, live CD3+ T cells; column 'Fab multimer -> D-biotin -> ST-PE': after D-biotin and washing, remaining Fab monomers detected with Strep-Tactin PE alone
# From the text: as §1, §3
row,Binder,percentage of cells within gate
1,B1,16.1%
2,B2,0.019%
3,B3,0.0017%
4,B4,0.00284%
5,B5,16.4%
